Source: US20220119490A1 (Genentech, published 2022)

Legend:
PTPRO expressed on cells = molecular target: T1, PTPRO expressed on cells (human, UniProt Q16827 30-1216); experiment: cell surface interaction assay: query ECD tetramerised with fluorescent streptavidin on transfected cells, immunofluorescence
T1 construct: whole, on cells
T1 sequence (looked up): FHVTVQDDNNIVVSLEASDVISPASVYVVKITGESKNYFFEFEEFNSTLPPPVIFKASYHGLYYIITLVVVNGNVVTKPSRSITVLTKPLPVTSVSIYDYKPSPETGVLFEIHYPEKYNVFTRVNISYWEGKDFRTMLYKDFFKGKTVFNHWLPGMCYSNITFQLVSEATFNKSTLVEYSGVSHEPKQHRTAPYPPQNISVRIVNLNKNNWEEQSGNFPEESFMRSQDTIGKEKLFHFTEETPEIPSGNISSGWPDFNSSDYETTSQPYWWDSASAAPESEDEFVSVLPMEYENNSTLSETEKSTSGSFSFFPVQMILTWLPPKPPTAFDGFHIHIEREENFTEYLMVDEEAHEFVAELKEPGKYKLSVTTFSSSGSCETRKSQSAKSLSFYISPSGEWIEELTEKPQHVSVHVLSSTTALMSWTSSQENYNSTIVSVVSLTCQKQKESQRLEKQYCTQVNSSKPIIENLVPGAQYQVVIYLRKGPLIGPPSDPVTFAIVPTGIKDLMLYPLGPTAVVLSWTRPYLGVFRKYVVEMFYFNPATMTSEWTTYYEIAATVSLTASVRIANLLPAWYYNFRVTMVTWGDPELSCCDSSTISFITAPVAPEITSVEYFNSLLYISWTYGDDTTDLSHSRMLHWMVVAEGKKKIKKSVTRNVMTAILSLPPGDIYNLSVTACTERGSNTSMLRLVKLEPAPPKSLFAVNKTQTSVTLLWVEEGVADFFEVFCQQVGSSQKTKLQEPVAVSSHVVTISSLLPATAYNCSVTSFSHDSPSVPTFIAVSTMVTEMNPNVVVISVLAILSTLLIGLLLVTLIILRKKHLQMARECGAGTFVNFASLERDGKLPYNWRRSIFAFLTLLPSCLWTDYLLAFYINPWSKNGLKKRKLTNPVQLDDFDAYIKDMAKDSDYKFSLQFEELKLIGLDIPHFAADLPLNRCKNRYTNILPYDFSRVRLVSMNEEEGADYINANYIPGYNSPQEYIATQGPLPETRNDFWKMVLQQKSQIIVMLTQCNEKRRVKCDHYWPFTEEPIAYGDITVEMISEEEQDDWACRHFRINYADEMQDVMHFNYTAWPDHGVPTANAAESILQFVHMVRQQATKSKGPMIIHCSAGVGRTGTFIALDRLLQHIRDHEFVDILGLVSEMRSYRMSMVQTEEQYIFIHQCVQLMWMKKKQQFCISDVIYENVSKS
Text: (§1) FIG. 3H is a schematic showing the design of the cell surface interaction assay.
(§2) Experiments shown are representative of two independent assays. […] Scale bar=50 μm.

PTPRM expressed on cells = molecular target: T2, PTPRM expressed on cells (human, UniProt P28827 21-1452); experiment: as above
T2 construct: whole, on cells
Text: as §1, §2

T2 sequence (P28827 21-1452): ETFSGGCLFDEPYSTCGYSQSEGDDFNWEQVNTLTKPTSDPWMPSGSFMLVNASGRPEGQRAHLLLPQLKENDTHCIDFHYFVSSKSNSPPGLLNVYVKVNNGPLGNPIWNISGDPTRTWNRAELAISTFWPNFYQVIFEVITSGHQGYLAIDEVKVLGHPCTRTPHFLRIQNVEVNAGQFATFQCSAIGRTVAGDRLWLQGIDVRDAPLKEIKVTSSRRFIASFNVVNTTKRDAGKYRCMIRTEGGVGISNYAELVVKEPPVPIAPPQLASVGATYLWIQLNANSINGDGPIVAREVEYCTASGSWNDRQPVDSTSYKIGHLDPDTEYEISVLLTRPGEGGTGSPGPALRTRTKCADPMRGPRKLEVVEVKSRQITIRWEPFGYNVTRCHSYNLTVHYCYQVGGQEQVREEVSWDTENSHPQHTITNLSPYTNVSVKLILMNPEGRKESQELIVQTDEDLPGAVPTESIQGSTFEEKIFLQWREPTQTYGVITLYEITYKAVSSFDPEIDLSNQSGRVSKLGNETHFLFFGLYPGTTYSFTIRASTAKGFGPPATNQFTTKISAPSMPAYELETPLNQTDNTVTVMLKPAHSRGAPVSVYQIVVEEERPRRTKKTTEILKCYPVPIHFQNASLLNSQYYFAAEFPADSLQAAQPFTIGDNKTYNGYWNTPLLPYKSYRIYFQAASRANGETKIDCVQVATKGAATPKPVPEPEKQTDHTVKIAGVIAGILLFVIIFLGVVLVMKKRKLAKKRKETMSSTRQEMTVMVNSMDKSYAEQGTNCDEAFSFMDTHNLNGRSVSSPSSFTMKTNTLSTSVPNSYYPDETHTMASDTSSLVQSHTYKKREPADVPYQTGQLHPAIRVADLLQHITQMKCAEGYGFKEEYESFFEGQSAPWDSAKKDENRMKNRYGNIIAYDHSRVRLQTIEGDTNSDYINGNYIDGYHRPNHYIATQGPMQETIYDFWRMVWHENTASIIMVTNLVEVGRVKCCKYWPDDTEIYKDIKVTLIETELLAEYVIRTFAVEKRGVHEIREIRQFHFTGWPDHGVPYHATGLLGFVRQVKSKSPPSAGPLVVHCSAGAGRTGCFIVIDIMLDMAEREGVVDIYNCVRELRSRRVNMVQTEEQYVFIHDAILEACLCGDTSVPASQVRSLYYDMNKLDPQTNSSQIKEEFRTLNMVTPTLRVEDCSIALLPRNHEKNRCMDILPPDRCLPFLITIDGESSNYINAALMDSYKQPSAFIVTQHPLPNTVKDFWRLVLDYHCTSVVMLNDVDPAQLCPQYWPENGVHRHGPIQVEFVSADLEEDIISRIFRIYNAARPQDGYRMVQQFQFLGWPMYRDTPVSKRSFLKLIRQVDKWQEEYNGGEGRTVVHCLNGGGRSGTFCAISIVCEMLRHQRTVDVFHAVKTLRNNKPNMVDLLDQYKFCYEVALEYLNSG

B1: LRFN5 extracellular domain (receptor, human, UniProt Q96NI6 18-529, looked up)
chain: QICPKRCVCQILSPNLATLCAKKGLLFVPPNIDRRTVELRLADNFVTNIKRKDFANMTSLVDLTLSRNTISFITPHAFADLRNLRALHLNSNRLTKITNDMFSGLSNLHHLILNNNQLTLISSTAFDDVFALEELDLSYNNLETIPWDAVEKMVSLHTLSLDHNMIDNIPKGTFSHLHKMTRLDVTSNKLQKLPPDPLFQRAQVLATSGIISPSTFALSFGGNPLHCNCELLWLRRLSREDDLETCASPPLLTGRYFWSIPEEEFLCEPPLITRHTHEMRVLEGQRATLRCKARGDPEPAIHWISPEGKLISNATRSLVYDNGTLDILITTVKDTGAFTCIASNPAGEATQIVDLHIIKLPHLLNSTNHIHEPDPGSSDISTSTKSGSNTSSSNGDTKLSQDKIVVAEATSSTALLKFNFQRNIPGIRMFQIQYNGTYDDTLVYRMIPPTSKTFLVNNLAAGTMYDLCVLAIYDDGITSLTATRVVGCIQFTTEQDYVRCHFMQSQFLGGTM
notes: extracellular domain; Streptavidin tetramer in cell assay; ECD-Fc prey in the variant screen; also called LFRN5
Q: Does B1 bind (PTPRO expressed on cells)?
A: no binding

Q: Does B1 bind (PTPRM expressed on cells)?
A: no binding
